Substitutions are numbered along the chain they refer to. Names and notes keep the numbering of the source. Ends that are not written are not given here.
B1: Tencon25-ABDCon fusion protein (designed binder)
chain: MLPAPKNLVVSEVTEDSARLSWTAPDAAFDSFLIQYQESEKVGEAIVLTVPGSERSYDLTGLKPGTEYTVSIYGVKGGHRSNPLSAIFTTGGGGSGGGGSLKEAKEKAIEELKKAGITSDYYFDLINKAKTVEGVNALKDEILKA
notes: not shown: C-terminal poly-histidine tag
B2: ABDCon12 (designed binder)
chain: TIDEWLLKEAKEKAIEELKKAGITSDYYFDLINKAKTVEGVNALKDEILKA
notes: also called ABDCon with N-terminal TIDEWL extension; not shown: N-terminal poly histidine tag
B3: ABDCon (non-natural albumin binding domain consensus) (designed binder)
chain: LKEAKEKAIEELKKAGITSDYYFDLINKAKTVEGVNALKDEILKA
modifications: not fully specified (N-terminus)
notes: Expressed in E. coli with an N-terminal 8-His tag; measured mass 6383 Da; not shown: N-terminal 8-His tag
B4: ABDCon9 (designed binder)
chain: B3 chain with T31A
modifications: not fully specified
notes: Expressed and purified as described for ABDCon; also called ABDCon T31A; not shown: N-terminal 8-His tag as for ABDCon
B5: ABDCon3 (designed binder)
chain: B3 chain with Y21K
modifications: not fully specified
notes: Expressed and purified as described for ABDCon; also called ABDCon Y21K; not shown: N-terminal 8-His tag as for ABDCon
B6: ABDCon5 (designed binder)
chain: B3 chain with Y22S
modifications: not fully specified
notes: Expressed and purified as described for ABDCon; also called ABDCon Y22S; not shown: N-terminal 8-His tag as for ABDCon
B7: ABDCon2 (designed binder)
chain: B3 chain with Y21A
modifications: not fully specified
notes: Expressed and purified as described for ABDCon; also called ABDCon Y21A; not shown: N-terminal 8-His tag as for ABDCon
B8: ABDCon10 (designed binder)
chain: B3 chain with A37V
modifications: not fully specified
notes: Expressed and purified as described for ABDCon; also called ABDCon A37V; not shown: N-terminal 8-His tag as for ABDCon
B9: ABDCon8 (designed binder)
chain: B3 chain with K30D
modifications: not fully specified
notes: Expressed and purified as described for ABDCon; also called ABDCon K30D; not shown: N-terminal 8-His tag as for ABDCon
B10: ABDCon4 (designed binder)
chain: B3 chain with Y22A
modifications: not fully specified
notes: Expressed and purified as described for ABDCon; also called ABDCon Y22A; not shown: N-terminal 8-His tag as for ABDCon
B11: ABDCon7 (designed binder)
chain: B3 chain with E41Q
modifications: not fully specified
notes: Expressed and purified as described for ABDCon; also called ABDCon E41Q; not shown: N-terminal 8-His tag as for ABDCon
B12: ABDCon6 (designed binder)
chain: B3 chain with Y22V
modifications: not fully specified
notes: Expressed and purified as described for ABDCon; also called ABDCon Y22V; not shown: N-terminal 8-His tag as for ABDCon

Legend:
[1] = target: T1, murine serum albumin (murine, UniProt P07724 25-608); experiment: KD column of the mouse PK table; method and albumin species not stated there
T1 construct: Bought from Sigma (A3559); also called mouse serum albumin; Mouse
T1 sequence (P07724 25-608 limits assumed): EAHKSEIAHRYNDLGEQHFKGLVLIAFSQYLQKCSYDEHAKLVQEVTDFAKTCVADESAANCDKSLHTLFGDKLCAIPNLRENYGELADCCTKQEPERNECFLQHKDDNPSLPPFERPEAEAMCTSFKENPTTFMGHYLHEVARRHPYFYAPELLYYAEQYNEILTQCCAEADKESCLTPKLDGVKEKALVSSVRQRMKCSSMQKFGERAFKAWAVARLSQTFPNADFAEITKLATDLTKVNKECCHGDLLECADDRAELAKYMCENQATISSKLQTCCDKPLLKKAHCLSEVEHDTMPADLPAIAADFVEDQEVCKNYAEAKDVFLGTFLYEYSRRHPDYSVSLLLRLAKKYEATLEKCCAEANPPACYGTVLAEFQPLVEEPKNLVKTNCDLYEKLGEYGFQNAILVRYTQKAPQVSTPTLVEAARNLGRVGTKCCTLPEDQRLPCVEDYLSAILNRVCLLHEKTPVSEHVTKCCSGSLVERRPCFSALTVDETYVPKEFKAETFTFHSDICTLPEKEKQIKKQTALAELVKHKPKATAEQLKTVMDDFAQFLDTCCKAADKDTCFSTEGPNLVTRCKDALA

[2] = target: T2, human serum albumin (human, UniProt P02768 25-609); experiment: SPR, same methods as Example 2
T2 construct: Bought from Sigma (A4327); also called HSA
Description: (§1) Each serum albumin was directly immobilized on a ligand channel in the vertical orientation of a GLC chip via standard amine coupling at 2.1 μg/mL at pH 5.0 to obtain surfaces with ligand densities of 500-1000 resonance units. […] The dissociation phases for all concentrations were monitored for two hours at a flow rate of 100 μL/min using PBST (PBS, 0.005% Tween20) as running buffer. A sixth sample (buffer only) was injected to monitor the baseline stability. The surfaces were regenerated using 1 short pulse (18 μL) of 0.8% phosphoric acid.
(§2) The raw response data were first processed by subtracting the buffer only responses and the non-specific binding between the analytes and the chip. Processed data of all five concentrations were globally fit to a 1:1 simple langmuir binding model for each ligand surface.

[3] = target: T1, murine serum albumin; experiment: SPR, same methods as Example 2
Description: as §1, §2

[4] = target: T2, human serum albumin; experiment: SPR (ProteOn XPR-36), albumin immobilized, ABDCon as analyte
Description: as §1, §2

[5] = target: T1, murine serum albumin; experiment: as above
Description: as §1, §2

[6] = target: T3, Rhesus serum albumin (Rhesus, UniProt Q28522 17-600, limits assumed); experiment: as above
T3 construct: Bought from Sigma (A4297)
T3 sequence (Q28522 17-600 limits assumed): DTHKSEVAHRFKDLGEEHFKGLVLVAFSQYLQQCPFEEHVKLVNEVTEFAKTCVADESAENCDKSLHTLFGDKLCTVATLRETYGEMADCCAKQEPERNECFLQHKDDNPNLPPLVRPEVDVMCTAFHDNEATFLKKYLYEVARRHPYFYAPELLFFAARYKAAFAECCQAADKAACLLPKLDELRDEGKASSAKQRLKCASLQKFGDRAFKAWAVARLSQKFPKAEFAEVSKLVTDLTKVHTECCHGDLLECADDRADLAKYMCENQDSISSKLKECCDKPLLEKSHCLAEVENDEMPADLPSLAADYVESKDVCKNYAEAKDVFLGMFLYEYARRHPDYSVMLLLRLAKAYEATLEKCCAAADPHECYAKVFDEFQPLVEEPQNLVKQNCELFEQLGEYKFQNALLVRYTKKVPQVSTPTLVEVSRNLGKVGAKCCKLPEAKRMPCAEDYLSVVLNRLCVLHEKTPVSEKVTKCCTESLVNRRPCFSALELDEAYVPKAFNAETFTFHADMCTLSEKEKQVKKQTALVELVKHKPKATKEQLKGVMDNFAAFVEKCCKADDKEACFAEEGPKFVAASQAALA
Description: as §1, §2

[7] = target: T1, murine serum albumin; experiment: SPR
[8] = target: T3, Rhesus serum albumin; experiment: SPR

Binder | Kd [7] | Kd [8] | further results
B1 | – | – | Kd [1]: 1.86 nM
B2 | – | – | Kd [2]: 0.7 nM; Kd [3]: 8.2 nM
B3 | – | – | Kd [4]: 0.0748 nM; koff [4]: 3.02e-05 s⁻¹; kon [4]: 404000 M⁻¹ s⁻¹; Kd [5]: 3.22 nM; koff [5]: 0.000776 s⁻¹; kon [5]: 241000 M⁻¹ s⁻¹; Kd [6]: 0.0601 nM; koff [6]: 6.78e-05 s⁻¹; kon [6]: 1.13e+06 M⁻¹ s⁻¹
B4 | 551 nM | 206 nM | –
B5 | 103 nM | 5.1 nM | –
B6 | 1650 nM | 104 nM | –
B7 | – | 17.5 nM | –
B8 | 37.8 nM | 1.3 nM | –
B9 | 1000 nM | 65 nM | –
B10 | 571 nM | 43.7 nM | –
B11 | 20.6 nM | 0.5 nM | –
B12 | 190 nM | 8.4 nM | –

— US20160083436A1 (Janssen / Centocor, published 2016)
